Where “and” joins values, the source holds several entries; their conditions need not be identical. Identical values can stand only once. Where a SMILES comes first, the peptide text is derived from it.
Assays:
[1] = solubility pre-screen in an aqueous, acidic milieu; format: physicochemical
[2] = precipitation in the aqueous solution of the binding assay; format: physicochemical; details: aqueous solution of the MHC class II binding assay, read-out: Precipitation in assay: lowest concentration at which an insoluble white precipitate is seen
Text: This is a characteristic of promiscuous HLA-DRB1* binders.

[3] = molecular target: T1, human MHC class II allotype HLA-DRB1*0301 (human); experiment: competitive MHC class II binding assay; competitor control peptide hsp 65 2-16
T1 construct: Source and construct of the MHC protein in the assay are not described

[4] = molecular target: T2, human MHC class II allotype HLA-DRB1*0701 (human); experiment: competitive MHC class II binding assay; competitor control peptide influenza haemagglutinin 307-319;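 note: each test peptide was scored on how well it displaces the known control binder from each human MHC class II allotype studied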
T2 construct: Source and construct of the MHC protein in the assay are not described

[5] = molecular target: T3, human MHC class II allotype DQA1*0102/DQB1*0602 (human, UniProt P01920 33-230, limits assumed); experiment: competitive MHC class II binding assay; competitor control peptide human insulin B 1-15
T3 construct: Source and construct of the MHC protein in the assay are not described
T3 MHC II alpha: not shown
T3 MHC II beta: not shown

[6] = molecular target: T4, human MHC class II allotype HLA-DRB1*1501 (human); experiment: competitive MHC class II binding assay; competitor control peptide myelin basic protein 85-99
T4 construct: Source and construct of the MHC protein in the assay are not described

[7] = molecular target: T5, human MHC class II allotype HLA-DRB1*1101 (human); experiment: competitive MHC class II binding assay; competitor control peptide influenza haemagglutinin 307-319;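 note: each test peptide was scored on how well it displaces the known control binder from each human MHC class II allotype studied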
T5 construct: Source and construct of the MHC protein in the assay are not described

[8] = molecular target: T6, human MHC class II allotype HLA-DRB1*0101 (human); experiment: as above
T6 construct: Source and construct of the MHC protein in the assay are not described

[9] = molecular target: T7, human MHC class II allotype HLA-DRB1*0401 (human); experiment: as above
T7 construct: Source and construct of the MHC protein in the assay are not described

CC[C@H](C)[C@H](NC(=O)[C@H](C)NC(=O)[C@@H](N)[C@@H](C)O)C(=O)N[C@@H](Cc1ccccc1)C(=O)N[C@@H](CCC(N)=O)C(=O)N[C@@H](CC(=O)O)C(=O)N[C@H](C(=O)N[C@H](C(=O)N[C@@H](CCCNC(=N)N)C(=O)N[C@@H](C)C(=O)N[C@@H](CCC(=O)O)C(=O)N[C@@H](CCSC)C(=O)N[C@H](C(=O)N[C@@H](CCCCN)C(=O)O)[C@@H](C)O)C(C)C)[C@@H](C)O [HDM48] (H-TAIFQDTVRAEMTK-OH; N-terminus and C-terminus assumed)
Solubility test [1]: YES
solubility [2]: 1000 µM and 1600 µg/mL

CC[C@H](C)[C@H](NC(=O)CNC(=O)[C@@H](NC(=O)[C@@H](N)Cc1c[nH]cn1)[C@@H](C)CC)C(=O)N[C@H](C(=O)N[C@@H](CC(=O)O)C(=O)N[C@@H](CC(C)C)C(=O)N[C@@H](CCCCN)C(=O)NCC(=O)N[C@@H](CCC(=O)O)C(=O)N[C@@H](CC(C)C)C(=O)N[C@@H](CC(=O)O)C(=O)N[C@@H](CCSC)C(=O)N[C@@H](CCCNC(=N)N)C(=O)N[C@@H](CC(N)=O)C(=O)O)[C@@H](C)CC [HDM31A] (H-HIGIIDLKGELDMRN-OH)
Solubility test [1]: YES
solubility [2]: 1000 µM and 1700 µg/mL

CC[C@H](C)[C@H](N)C(=O)N[C@@H](CC(=O)O)C(=O)N[C@@H](CC(C)C)C(=O)N[C@@H](CCCCN)C(=O)NCC(=O)N[C@@H](CCC(=O)O)C(=O)N[C@@H](CC(C)C)C(=O)N[C@@H](CC(=O)O)C(=O)N[C@@H](CCSC)C(=O)N[C@@H](CCCNC(=N)N)C(=O)N[C@@H](CC(N)=O)C(=O)N[C@H](C(=O)N[C@@H](CCC(N)=O)C(=O)N[C@H](C(=O)N[C@@H](CCCNC(=N)N)C(=O)O)C(C)C)[C@@H](C)CC [HDM32A] (H-IDLKGELDMRNIQVR-OH)
Solubility test [1]: YES
solubility [2]: 5000 µM and 9000 µg/mL

CSCC[C@H](NC(=O)[C@@H]1CCCN1C(=O)[C@H](CC(=O)O)NC(=O)[C@H](Cc1ccccc1)NC(=O)[C@@H](NC(=O)[C@H](CCC(=O)O)NC(=O)[C@H](CO)NC(=O)[C@@H](N)CCCCN)[C@@H](C)O)C(=O)N[C@@H](CCCCN)C(=O)N[C@H](C(=O)N1CCC[C@H]1C(=O)N[C@@H](CC(=O)O)C(=O)N[C@@H](Cc1c[nH]cn1)C(=O)N[C@@H](CO)C(=O)N[C@@H](CC(=O)O)C(=O)O)C(C)C [HDM29B] (H-KSETFDPMKVPDHSD-OH)
Solubility test [1]: YES
solubility [2]: 1000 µM and 1700 µg/mL

CC[C@H](C)[C@H](NC(=O)CNC(=O)[C@@H](NC(=O)[C@H](Cc1c[nH]cn1)NC(=O)[C@H](CCCNC(=N)N)NC(=O)[C@H](CCC(=O)O)NC(=O)[C@H](Cc1ccccc1)NC(=O)[C@H](CCCCN)NC(=O)[C@@H](N)CC(=O)O)[C@@H](C)CC)C(=O)N[C@H](C(=O)N[C@@H](CC(=O)O)C(=O)N[C@@H](CC(C)C)C(=O)N[C@@H](CCCCN)C(=O)O)[C@@H](C)CC [HDM30] (H-DKFERHIGIIDLK-OH; N-terminus and C-terminus assumed)
Solubility test [1]: YES
solubility [2]: 5000 µM and 7900 µg/mL

CC(C)C[C@H](NC(=O)[C@H](CCC(N)=O)NC(=O)[C@H](Cc1ccccc1)NC(=O)[C@@H]1CCCN1C(=O)[C@@H](N)CCCCN)C(=O)N[C@@H](CCC(=O)O)C(=O)N[C@@H](C)C(=O)N[C@H](C(=O)N[C@@H](Cc1ccccc1)C(=O)N[C@@H](CCC(=O)O)C(=O)N[C@@H](C)C(=O)N[C@@H](CC(N)=O)C(=O)N[C@@H](CCC(N)=O)C(=O)N[C@@H](CC(N)=O)C(=O)N[C@H](C(=O)N[C@@H](CCCCN)C(=O)O)[C@@H](C)O)C(C)C [HDM21A] (H-KPFQLEAVFEANQNTK-OH; N-terminus and C-terminus assumed)
Solubility test [1]: YES
solubility [2]: 5000 µM and 9300 µg/mL

CC[C@H](C)[C@H](N)C(=O)N[C@@H](CC(=O)O)C(=O)N[C@@H](CC(C)C)C(=O)N[C@@H](CCCCN)C(=O)NCC(=O)N[C@@H](CCC(=O)O)C(=O)N[C@@H](CC(C)C)C(=O)N[C@@H](CC(=O)O)C(=O)N[C@@H](CCSC)C(=O)N[C@@H](CCCNC(=N)N)C(=O)N[C@@H](CC(N)=O)C(=O)N[C@H](C(=O)N[C@@H](CCC(N)=O)C(=O)O)[C@@H](C)CC [HDM32] (H-IDLKGELDMRNIQ-OH; N-terminus and C-terminus assumed)
Solubility test [1]: YES
solubility [2]: 5000 µM and 7700 µg/mL

CC[C@H](C)[C@H](NC(=O)[C@H](CCC(=O)O)NC(=O)[C@@H](NC(=O)[C@H](CCCCN)NC(=O)[C@H](C)N)[C@@H](C)CC)C(=O)N[C@@H](CCCCN)C(=O)N[C@@H](C)C(=O)N[C@@H](CO)C(=O)N[C@@H](CC(C)C)C(=O)N[C@@H](CC(=O)O)C(=O)NCC(=O)N[C@@H](CC(C)C)C(=O)N[C@@H](CCC(=O)O)C(=O)O [HDM27] (H-AKIEIKASLDGLE-OH)
Solubility test [1]: YES
solubility [2]: 1000 µM and 1400 µg/mL

CC(C)C[C@H](NC(=O)[C@H](CCC(N)=O)NC(=O)[C@H](Cc1ccccc1)NC(=O)[C@@H]1CCCN1C(=O)[C@H](CCCCN)NC(=O)CNC(=O)[C@@H](N)CCCNC(=N)N)C(=O)N[C@@H](CCC(=O)O)C(=O)N[C@@H](C)C(=O)N[C@H](C(=O)N[C@@H](Cc1ccccc1)C(=O)N[C@@H](CCC(=O)O)C(=O)N[C@@H](C)C(=O)N[C@@H](CC(N)=O)C(=O)N[C@@H](CCC(N)=O)C(=O)N[C@@H](CC(N)=O)C(=O)N[C@H](C(=O)O)[C@@H](C)O)C(C)C [HDM21B] (H-RGKPFQLEAVFEANQNT-OH; N-terminus and C-terminus assumed)
Solubility test [1]: YES
solubility [2]: 1000 µM and 1980 µg/mL

IDLRQMRTVTPIR (Synthetic peptide, 79.2% purity) [HDM01]
ratio of its own IC50 to that of the control peptide [3]: 19.2
ratio of its own IC50 to that of the control peptide [4]: 16

RTVTPIRMQGGCG (Synthetic peptide, 79.6% purity) [HDM02]
ratio of its own IC50 to that of the control peptide [5]: 0.03
ratio of its own IC50 to that of the control peptide [6]: 80

RNQSLDLAEQELVDCASQH (Synthetic peptide, 60.1% purity) [HDM03C]
ratio of its own IC50 to that of the control peptide [5]: 0.16

RYVAREQSCRRPN (Synthetic peptide, 79.7% purity) [HDM06]
ratio of its own IC50 to that of the control peptide [5]: 0.86
ratio of its own IC50 to that of the control peptide [7]: 30.4

REALAQTHSAIAVI (Synthetic peptide, 69.6% purity) [HDM09A]
ratio of its own IC50 to that of the control peptide [6]: 200
ratio of its own IC50 to that of the control peptide [4]: 0.49
ratio of its own IC50 to that of the control peptide [7]: 21.1

KPFQLEAVFEANQNT (Synthetic peptide, 88.7% purity) [HDM21]
ratio of its own IC50 to that of the control peptide [8]: 92
ratio of its own IC50 to that of the control peptide [9]: 11.2
ratio of its own IC50 to that of the control peptide [7]: 11.7

KPFQLEAVFEANQNTK (Synthetic peptide, 90.1% purity) [HDM21A]
ratio of its own IC50 to that of the control peptide [8]: 200
ratio of its own IC50 to that of the control peptide [9]: 52.2
ratio of its own IC50 to that of the control peptide [7]: 10.3

RGKPFQLEAVFEANQNT (Synthetic peptide, 82.6% purity) [HDM21B]
ratio of its own IC50 to that of the control peptide [8]: 13.5
ratio of its own IC50 to that of the control peptide [9]: 0.78
ratio of its own IC50 to that of the control peptide [7]: 4.1

EAVFEANQNTKTAK (Synthetic peptide, 90.3% purity) [HDM22A]
ratio of its own IC50 to that of the control peptide [9]: 329
ratio of its own IC50 to that of the control peptide [7]: 80

DGLEVDVPGIDPNACH (Synthetic peptide, 66.7% purity) [HDM23A]
ratio of its own IC50 to that of the control peptide [3]: 347
ratio of its own IC50 to that of the control peptide [5]: 0.76

DGVLACAIATHAKIR (Synthetic peptide) [HDM26A]
ratio of its own IC50 to that of the control peptide [5]: 0.61
ratio of its own IC50 to that of the control peptide [8]: 42.3
ratio of its own IC50 to that of the control peptide [4]: 16.3

DKFERHIGIIDLK (Synthetic peptide, 81.4% purity) [HDM30]
ratio of its own IC50 to that of the control peptide [4]: 6.2

RGLKQMKRVGDAN (Synthetic peptide, 84.0% purity) [HDM35]
ratio of its own IC50 to that of the control peptide [7]: 1.26

HDDVVSMEYDLAYKL (Synthetic peptide, 80.9% purity) [HDM39A]
ratio of its own IC50 to that of the control peptide [5]: 0.1
ratio of its own IC50 to that of the control peptide [9]: 76.2
ratio of its own IC50 to that of the control peptide [4]: 0.71

VSMEYDLAYKLGDLH (Synthetic peptide, 66.9% purity) [HDM40A]
ratio of its own IC50 to that of the control peptide [4]: 2.29
ratio of its own IC50 to that of the control peptide [7]: 6

TAIFQDTVRAEMTK (Synthetic peptide, 79.1% purity) [HDM48]
ratio of its own IC50 to that of the control peptide [3]: 211
ratio of its own IC50 to that of the control peptide [4]: 15.7
ratio of its own IC50 to that of the control peptide [7]: 13.6

DTVRAEMTKVLAP (Synthetic peptide, 69.5% purity) [HDM49]
ratio of its own IC50 to that of the control peptide [5]: 1.7
ratio of its own IC50 to that of the control peptide [6]: 671

From patent publication US9340580B2, “Peptide with multiple epitopes” (priority 2007, dated 2016)
